Experimental data: article PMC1713233, “Implantation Serine Proteinases heterodimerize and are critical in hatching and implantation” (BMC Developmental Biology, 2006)

Target: T1, ISP1-ISP2 enzyme complex (Mus musculus, UniProt Q924N9+Q99MS4)
T1 construct: The native ISP enzyme complex was purified from mouse uterine tissue homogenates; from tissue; host or cells: uterus of pregnant CD1 mice (4.5-6.5 dpc)
Test: Inhibition of proteolytic activity of ISP enzyme complex, chromogenic assay with BAPNA as substrate
Type: biochemical
Protocol: Many general serine proteinase inhibitors were tested in order to identify suitable ISP inhibitors when BAPNA was used as a substrate. These included Benzamidine hydrochloride, 4-(Amidino-Phenyl)-Methane-Sulfonyl Fluoride (APMSF), L-1 Chloro-3- [4-tosyl-amido]-7-amino-2-heptanone. HCl (TLCK), Trypsin Soybean Inhibitor (TSI), Bis (5-amidino-2-benzimadozolyl) methane (BABIM), Gabexate mesylate, Nafamostat, and the kunitz family serpins Uterine Plasmin-Trypsin Inhibitor (UPTI) and Secretary Leukocyte proteinase inhibitor (SLPI).
Only inhibitors specific for trypsin-like serine proteinases were able to inhibit the ISPs (Fig. 4B and Additional file 2. Table 1). IC50 (concentration of an inhibitor capable of inhibiting the enzyme activity by 50%) values were obtained by plotting inhibition data, which were extrapolated into Cheng and Prusoff's equation to derive the dissociation constant (Ki).
Chromogenic assays were carried out using the p-Nitroanilide conjugated peptidic substrates. The reaction conditions used were: 4 mM BAPNA (substrate), in 25 mM Tris.Cl (pH 8.0) and 10 mM EDTA reaction buffer, in a total reaction volume of 0.5 mL. The reactions were carried out at room temperature in a glass cuvette (1 cm path length), and scanned at wavelength maxima of 405 nm using a spectrophotometer. 1 Unit of enzyme is defined as enzyme activity sufficient for the breakdown of 1 μM of substrate/ml/min. The affinity of ISP complex with various substrates was characterized by measuring enzyme activity at differing substrate concentrations and plotting enzyme activity [V] vs. substrate concentration [S]. The Km was calculated using the Michaelis Menton equation (Km = [S] at 1/2 Vmax).
IC50 values were derived by plotting enzyme activity (V) vs. inhibitor concentration [I]. Dissociation constants (Ki) values for different inhibitors were determined by using the Cheng and Prusoff equation (Ki = IC50/1 + [S]/Km).

T1 sequence (Q924N9 27-274): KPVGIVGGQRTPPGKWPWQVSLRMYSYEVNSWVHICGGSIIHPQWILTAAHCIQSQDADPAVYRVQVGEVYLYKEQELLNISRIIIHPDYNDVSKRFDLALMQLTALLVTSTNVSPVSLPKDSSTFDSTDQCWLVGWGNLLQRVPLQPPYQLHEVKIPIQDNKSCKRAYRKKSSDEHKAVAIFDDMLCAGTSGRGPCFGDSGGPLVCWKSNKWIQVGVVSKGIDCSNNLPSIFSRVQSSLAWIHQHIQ
T1 sequence (Q99MS4 18-279): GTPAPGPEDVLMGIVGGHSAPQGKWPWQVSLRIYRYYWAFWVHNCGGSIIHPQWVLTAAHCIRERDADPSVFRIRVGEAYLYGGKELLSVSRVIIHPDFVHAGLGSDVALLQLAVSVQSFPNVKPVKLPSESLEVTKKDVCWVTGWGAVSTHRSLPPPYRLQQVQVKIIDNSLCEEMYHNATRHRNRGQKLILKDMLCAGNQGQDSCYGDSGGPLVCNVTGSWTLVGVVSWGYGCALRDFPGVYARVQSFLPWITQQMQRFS

IC50 (4 mM BAPNA substrate, 25 mM Tris.Cl pH 8.0, room temperature, read-out: IC50%): 8 µM
Affinity for ISP enzyme (Fig. 4B, compared to Benzamidine): relatively high affinity
Influence on ISP activity (general trypsin inhibitors): inhibitory influence
B1: TSI: Trypsin Soybean Inhibitor, obtained from Sigma Aldrich (protein, UniProt P01070 25-205, looked up)
Trypsin inhibitor A: DFVLDNEGNPLENGGTYYILSDITAFGGIRAAPTGNERCPLTVVQSRNELDKGIGTIISSPYRIRFIAEGHPLSLKFDSFAVIMLCVGIPTEWSVVEDLPEGPAVKIGENKDAMDGWFRLERVSDDEFNNYKLVFCPQQAEDDKCGDIGISIDHDDGTRRLVVSKNKPLVVQFQKLDKESL
